Test results published in the nanobody polyreactivity screen of Harvey et al. (2022).

Assay: yeast display, Sf9 membrane polyspecificity reagent, FACS + sequencing; frameworks hold sequencing errors
Summary of the method: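 Synthetic nanobody libraries on Saccharomyces cerevisiae BJ5465 were galactose-induced for 36–48 hours, stained 1 hour at 4 °C with 10% biotinylated, detergent-solubilized Sf9 membrane reagent and enriched on streptavidin microbeads. FACS then separated cells into low and high (top ~1%) gates by anti-HA (expression) and streptavidin (reagent binding) fluorescence. Genes were colony-PCR amplified, MiSeq 2 × 250 sequenced and CDR-length filtered. A clone's polyreactivity label is that of its gate of origin.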

Sequence | polyreactivity (PSR sort gate)
QVQLVESGGGLVQAGGSLRLSCAASGFIFYKYAMGWYRQAPGKERELVAGITWNVGSTYYADSVKGRFTISRDNAKNTVYLQMNSMKPEDTAVYYCAARHSYLGGTISLLYDYWGQGTQVTVSS | low polyreactivity
QVKIVESVGGLVQSGGSLRLSCAASGRTFHRNARGLYREAPGTEREWVATITTNGGATDYADTVTGRFTSSRDNAKNTFYFHMHSQIPEDTAVYYCSAPFNPRVRPLGSVRMYYWGQGTQVTVSS | low polyreactivity
QVQLVESGGGLVQAGGSLRLSCADSGFIFAYYVMGWYRQAPGKERELVAAISRGGGSTYYADSVKGRFTISRDNAKYTVYLQMNSLKPEDTAVYYCATYSHALRYDYWGQGTQVTVSS | high polyreactivity
QVQLVESGGGLVQAGGSLRLSCAASGSTFIYYAMGWYRQAPGKERELVAAISGSGASTYYADSVKGRFTISRDNAKNTVYLQMNSLKPEDTAVYYCAARSYGITDYGMYSWGQGTQVTVSS | high polyreactivity
QVQLVESGGGLVQAGGSLRLSCAASGSTCSVNAMGWYRQAPGKERELVAAITYSGGSTYYADSVKGRFTISRDNAKNTVYLQMNSLKPEDTAVYYCNRDTRYYWKRYGYWGQGTQVTVSS | high polyreactivity
QVQLVESGGGLVQAGGSLRLSCAASGFTFGPYAMGWYRQAPGKERELVAAISQSGGRTSYADSVKGRFTISRDNAKNTVYLQMNSLKPEDTSVYYCAKRAYGYRSIYRMDYWGQGTQVTVSS | high polyreactivity
QVQLVESGGGLVQAGGSLRLSCAASGRFFVPYFIGSYRQAPGTERELVASISDSDTSTYYADSVKGRFTISRDNAKNTVYLQMNSLKPEDTAVYYCNVDYWGQGTQVTLSS | low polyreactivity
QVQLEESGGGLVQAGGSLRLSCAASGLIYSSYAMGWYRQAPGKERELVAAIRSGGNTNYADSVKGRFTISRDNAKNTVYLQMNSLKPEDTAVYYCADGTYSRPYYRTFDHWGQGTQVTVSS | low polyreactivity
QVQLVESGGGLVQAGGSLRLTCAASGRTFDCYAMGLYRQAPGKERELVAAISSRGGSTYYADSVKGRFTISRDNAKNTVYLQMNSLKPEDTSVYYCAKDLGYRGRYNYWGQGTQVTVSS | low polyreactivity
QVQLVESGGVLVQAGGSLRLSCAASGITLTANAMGWYRQAPGKERELVAAISRGGSKYYADSVKGRFTISRDNAKNPGYLQMNSLKPEDTAVYYCNKAGGYWYAKRDYDYWGQVTQVTVSS | high polyreactivity
QVQLVESGGGLVQAGGSLRLSCAASGRIFNQYGMGWYRPAPGKERELVAAIRYGDSTNYADSVKGRFTISRDNAKNTVYLQMNSLKPEDTAVYYCARDPAGDYAGYDYWGQGTQVTVSS | low polyreactivity
QVQLVESGGGLVQAGGSLRLSCAASGRIFARYTMGWYRQAPGKEREFVAGIRSSGGRTYYADSVKGRFTISRDNAKNTVYLQMNSLKPEDTALYYCNAGGSWYFARYDYWGQGTQVTVSS | low polyreactivity
QVQLVESGGGLVQAGGSLRLSCAASGSIFYAYAMGWYTQAPGKERELVATISSVGSTYYADSVKGRFTISRDNAKNTVYLQMNSLKPEDTAVYYCAKQRIVVYKTGYDYWGQGTQVTVSS | low polyreactivity
QVQLQESGGGMEQAGGSLRLSCAASGYISWADYMVWYRQAPGKERELVAGIGYGSTTYYADSVKGRFTISRANAKNTAYLQMNSLKPEDTAVYYCAVGWYRDTAYKYWGQGTQVTVSS | low polyreactivity
QVQLVESGGGLVQAGGSLRLSCAASGRIFRWYAMGWYRQAPGKERELVATISSSGRTNYADSVKGRFTISRDNAKNTVYLQMNSLKPEDTAVYYCAAEYYLRYRYDYWGQGTQVTVSS | high polyreactivity
QVQLVESGGGLVQAGGSLRLSCAASGGTFRRYAMGWYRQAPGKERELVAAISWTGGSTYYADSVKGRFTISRDNAKNTVYLQMNSLKPEDTGVYYCAAVGSSSSKGGYWGQGTQVTVSS | high polyreactivity
QVQLVESGGGLVQAGGSLRLSCAASGFTFFMYAMGGDRQAPGKEREFVASITGSGGSTYYADSVKGRFTISRDTAKNSVYLQMNSLKPEDTAVYYCNKLSYGRSGYWGQGTQVTVSS | high polyreactivity
QVQLLESGGALVQAVGSLRLSCMASGSILGDRMSWYRQAPGKEHELVATIYDGGITYYADSMKGRFTISRDNAIHTVYLQMNSLRPEDTAVYYCGASLEGYRYNVYCGQGTQVTVSS | low polyreactivity
QVQLVESGGGLVQAGGSLRLSCAASGRIFVIYGRGWYRPAPGKERELVATISWSGSSTSYADSVKGRFTISRDNAKNTVYLQMNSLKPEDTAVYYCAAYTWYSRHRMNYWGQGTQVTVSS | high polyreactivity
QVQLVESGGGLVQAGGSLRLSCAGSGFIFHLYAMGWYRPAPGKERELVAAIRISDGSTYYADSVKGRFTISRDNAKNTVYLLMNSLKPEDTAVYYCNRVRSSYVYVSRFDYWGQGTQVTVSS | high polyreactivity
QVQLVDSGGALVQAGGSLRLICAASGSTFIINAMGWYRQAPGKDRELVAAISGRGTRTYYADSVKGRFTISRDNAKNSVYLQMKSLKPEDTAVYYCNAVRSLSFTTEHDYWGQGTQVTVSS | high polyreactivity
QGQLVESGGGLVQAGGSLRLTCAASGSTFDQNVMGWYRQAPGKERELVDTINFSGDSTYYADSVKGRFTISRDNAKNTVYLQRNSLKPEDTAVYYCAVDWGEYIDTSVKRDISSYWGQGTQVTVSS | low polyreactivity
